# US20220010021A1 (Sanofi, published 2022)
# T1: human beta-Klotho (KLB) (human, UniProt Q86Z14 53-997)
# T1 construct: bought protein; also called human KLB
# T1 sequence (looked up): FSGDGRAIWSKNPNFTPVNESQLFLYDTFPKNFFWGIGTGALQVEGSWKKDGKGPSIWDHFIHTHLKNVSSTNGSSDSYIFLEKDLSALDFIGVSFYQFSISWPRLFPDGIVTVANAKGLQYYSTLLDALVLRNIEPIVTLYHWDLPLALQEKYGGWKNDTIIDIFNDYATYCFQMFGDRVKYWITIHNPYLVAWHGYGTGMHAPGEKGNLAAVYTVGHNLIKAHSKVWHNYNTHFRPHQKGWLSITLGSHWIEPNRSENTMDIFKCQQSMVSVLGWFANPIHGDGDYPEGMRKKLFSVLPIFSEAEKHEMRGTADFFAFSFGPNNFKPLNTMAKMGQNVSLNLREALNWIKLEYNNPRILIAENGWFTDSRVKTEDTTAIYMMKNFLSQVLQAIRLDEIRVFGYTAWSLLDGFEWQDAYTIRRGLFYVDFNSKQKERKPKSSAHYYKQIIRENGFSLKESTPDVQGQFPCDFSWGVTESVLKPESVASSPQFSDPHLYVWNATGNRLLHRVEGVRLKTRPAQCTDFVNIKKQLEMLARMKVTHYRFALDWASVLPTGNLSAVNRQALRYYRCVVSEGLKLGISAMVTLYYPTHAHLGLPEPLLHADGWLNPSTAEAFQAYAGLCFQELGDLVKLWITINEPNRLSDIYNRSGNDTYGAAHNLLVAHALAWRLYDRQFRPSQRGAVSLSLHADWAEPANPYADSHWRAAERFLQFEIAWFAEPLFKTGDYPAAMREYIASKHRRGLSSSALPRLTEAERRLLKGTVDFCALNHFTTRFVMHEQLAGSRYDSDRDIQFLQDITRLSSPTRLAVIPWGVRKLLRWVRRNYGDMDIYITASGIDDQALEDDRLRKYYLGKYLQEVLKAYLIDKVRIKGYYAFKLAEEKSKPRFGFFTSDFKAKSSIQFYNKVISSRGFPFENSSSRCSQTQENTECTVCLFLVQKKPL
# How the values were obtained:
# [1] = biological target: human FGFR1c + KLB receptor complex on HEK293 iLite FGF21 reporter cells (human, UniProt P11362 22-822; Q86Z14 1-1044); test: cell-based or functional assay
# human FGFR1c + KLB receptor complex on HEK293 iLite FGF21 reporter cells, sequence (P11362 22-822, chain 1 of 2): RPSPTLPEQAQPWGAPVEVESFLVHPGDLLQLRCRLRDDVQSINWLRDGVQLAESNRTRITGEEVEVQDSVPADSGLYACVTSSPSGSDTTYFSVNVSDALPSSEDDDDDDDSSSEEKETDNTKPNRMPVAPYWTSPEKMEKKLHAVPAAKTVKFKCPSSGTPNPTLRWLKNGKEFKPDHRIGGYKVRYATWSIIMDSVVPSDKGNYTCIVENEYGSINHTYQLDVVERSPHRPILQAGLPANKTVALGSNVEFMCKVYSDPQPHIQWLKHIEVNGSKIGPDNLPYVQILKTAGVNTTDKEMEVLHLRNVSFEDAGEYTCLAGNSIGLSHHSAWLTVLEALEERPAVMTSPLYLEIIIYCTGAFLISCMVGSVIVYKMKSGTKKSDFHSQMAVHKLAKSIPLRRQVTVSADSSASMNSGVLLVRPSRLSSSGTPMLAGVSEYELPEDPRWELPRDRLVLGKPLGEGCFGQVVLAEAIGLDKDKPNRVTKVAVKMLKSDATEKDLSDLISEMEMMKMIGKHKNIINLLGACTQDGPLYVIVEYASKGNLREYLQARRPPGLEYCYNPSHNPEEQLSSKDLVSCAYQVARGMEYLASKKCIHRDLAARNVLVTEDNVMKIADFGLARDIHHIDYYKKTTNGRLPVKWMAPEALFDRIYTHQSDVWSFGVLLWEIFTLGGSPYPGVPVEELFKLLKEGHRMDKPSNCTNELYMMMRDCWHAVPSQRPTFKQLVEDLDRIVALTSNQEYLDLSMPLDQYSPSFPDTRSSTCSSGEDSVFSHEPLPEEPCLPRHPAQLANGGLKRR
# human FGFR1c + KLB receptor complex on HEK293 iLite FGF21 reporter cells, sequence (Q86Z14 whole entry, chain 2 of 2): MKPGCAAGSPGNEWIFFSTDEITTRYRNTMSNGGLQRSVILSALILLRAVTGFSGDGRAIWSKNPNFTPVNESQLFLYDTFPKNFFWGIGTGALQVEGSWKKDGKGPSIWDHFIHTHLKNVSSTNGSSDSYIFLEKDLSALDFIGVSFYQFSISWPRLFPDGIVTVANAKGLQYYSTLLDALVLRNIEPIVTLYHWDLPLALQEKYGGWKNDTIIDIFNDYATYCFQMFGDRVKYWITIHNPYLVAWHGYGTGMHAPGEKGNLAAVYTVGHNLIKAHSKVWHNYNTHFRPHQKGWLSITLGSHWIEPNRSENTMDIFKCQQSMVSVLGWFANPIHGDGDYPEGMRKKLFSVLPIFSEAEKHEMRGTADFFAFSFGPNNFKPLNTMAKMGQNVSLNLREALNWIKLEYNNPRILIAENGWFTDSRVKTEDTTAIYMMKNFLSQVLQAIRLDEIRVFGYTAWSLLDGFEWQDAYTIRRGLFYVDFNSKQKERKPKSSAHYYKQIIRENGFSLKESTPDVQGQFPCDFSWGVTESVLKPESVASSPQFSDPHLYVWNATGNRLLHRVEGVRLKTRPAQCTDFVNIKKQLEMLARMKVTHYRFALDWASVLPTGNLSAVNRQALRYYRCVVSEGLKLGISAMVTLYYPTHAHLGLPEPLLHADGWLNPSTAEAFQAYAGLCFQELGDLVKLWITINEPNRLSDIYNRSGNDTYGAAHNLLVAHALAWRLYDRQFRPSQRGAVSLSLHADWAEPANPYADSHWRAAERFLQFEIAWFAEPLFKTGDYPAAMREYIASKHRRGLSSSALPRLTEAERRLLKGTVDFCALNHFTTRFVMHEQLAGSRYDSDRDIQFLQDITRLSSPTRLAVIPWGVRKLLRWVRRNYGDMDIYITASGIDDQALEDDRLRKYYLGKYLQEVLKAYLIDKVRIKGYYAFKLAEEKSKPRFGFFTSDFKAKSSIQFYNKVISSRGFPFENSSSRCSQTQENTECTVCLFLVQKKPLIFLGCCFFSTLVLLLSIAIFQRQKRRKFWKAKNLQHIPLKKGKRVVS
# human beta-Klotho (KLB) = biological target: T1, human beta-Klotho (KLB); test: SPR;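 further: Anti-KLB antibodies captured on anti-human Fc CM5 chip, KLB injected as analyte, 180 s association and 1800 s dissociation, fitted to 1:1 binding model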
Binder,EC50 [1] [pM],Emax [1] [%],koff (human beta-Klotho (KLB)) [s⁻¹]
"Ab0340 (antibody, IgG4, V domains shown, IgG4 PE) VH: QVTLKESGPVLVKPTETLTLTCTVSGFSLNNARVGVSWIRQPPGKALEWLAHIFSNDEKSYSTSLKSRLTISKDTSKSQVVLTMTNMDPVDTATYYCARSVVTGGYYYEGMDVWGQGTTVTVSS VL: SYVLTQPPSVSVAPGQTARITCGGSNIGSESVHWYQQKPGQAPVLVVYAESDRPSGIPERFSGSNSGNTATLTISRVEAGDEADYYCQVWEGSSDHVVFGGGTKLTVLG",50,912,0.00176
"Ab0352 (antibody, IgG4, V domains shown, IgG4 PE) VH: QVTLKESGPVLVKPTETLTLTCTVSGFSLNNARVGVSWIRQPPGKALEWLAHIFSNDEKSYSTSLKSRLTISKDTSKSQVVLTMTNMDPVDTATYYCARSVVTGGYYYEGMDVWGQGTTVTVSS VL: SYVLTQPPSVSVAPGQTARITCGGSNIGSESVHWYQQKPGQAPVLVVYEESDRPSGIPERFSGSNSGNTATLTISRVEAGDEADYYCQVWEGSSDHVVFGGGTKLTVLG",70,1010,0.000419
"Ab0345 (antibody, IgG4, V domains shown, IgG4 PE) VH: QVTLKESGPVLVKPTETLTLTCTVSGFSLNNARVGVSWIRQPPGKALEWLAHIFSNDEKSYSTSLKSRLTISKDTSKSQVVLTMTNMDPVDTATYYCARSVVTGGYYYEGMDVWGQGTTVTVSS VL: SYVLTQPPSVSVAPGQTARITCGGSNIGSESVHWYQQKPGQAPVLVVYAASDRPSGIPERFSGSNSGNTATLTISRVEAGDEADYYCQVWEGASDHVVFGGGTKLTVLG",70,908,0.00188
"Ab0344 (antibody, IgG4, V domains shown, IgG4 PE) VH: QVTLKESGPVLVKPTETLTLTCTVSGFSLNNARVGVSWIRQPPGKALEWLAHIFSNDEKSYSTSLKSRLTISKDTSKSQVVLTMTNMDPVDTATYYCARSVVTGGYYYEGMDVWGQGTTVTVSS VL: SYVLTQPPSVSVAPGQTARITCGGSNIGSESVHWYQQKPGQAPVLVVYAASDRPSGIPERFSGSNSGNTATLTISRVEAGDEADYYCQVWEGSSDHVVFGGGTKLTVLG",70,958,0.00168
"Ab0353 (antibody, IgG4, V domains shown, IgG4 PE) VH: QVTLKESGPVLVKPTETLTLTCTVSGFSLNNARVGVSWIRQPPGKALEWLAHIFSNDEKSYSTSLKSRLTISKDTSKSQVVLTMTNMDPVDTATYYCARSVVTGGYYYEGMDVWGQGTTVTVSS VL: SYVLTQPPSVSVAPGQTARITCGGSNIGSESVHWYQQKPGQAPVLVVYEESDRPSGIPERFSGSNSGNTATLTISRVEAGDEADYYCQVWEGASDHVVFGGGTKLTVLG",80,895,0.00038

# More lines, now with the values ahead:
EC50 [1] [pM],Emax [1] [%],koff (human beta-Klotho (KLB)) [s⁻¹],Binder
70,829,0.00195,"Ab0355 (antibody, IgG4, V domains shown, IgG4 PE) VH: QVTLKESGPVLVKPTETLTLTCTVSGFSLNNARVGVSWIRQPPGKALEWLAHIFSNDEKSYSTSLKSRLTISKDTSKSQVVLTMTNMDPVDTATYYCARSVVTGGYYYEGMDVWGQGTTVTVSS VL: SYVLTQPPSVSVAPGQTARITCGGSNIGSESVHWYQQKPGQAPVLVVYEYSDRPSGIPERFSGSNSGNTATLTISRVEAGDEADYYCQVWEGSSDHVVFGGGTKLTVLG"
80,893,0.00185,"Ab0357 (antibody, IgG4, V domains shown, IgG4 PE) VH: QVTLKESGPVLVKPTETLTLTCTVSGFSLNNARVGVSWIRQPPGKALEWLAHIFSNDEKSYSTSLKSRLTISKDTSKSQVVLTMTNMDPVDTATYYCARSVVTGGYYYEGMDVWGQGTTVTVSS VL: SYVLTQPPSVSVAPGQTARITCGGSNIGSESVHWYQQKPGQAPVLVVYEASDRPSGIPERFSGSNSGNTATLTISRVEAGDEADYYCQVWEGSSDHVVFGGGTKLTVLG"
70,878,0.00158,"Ab0354 (antibody, IgG4, V domains shown, IgG4 PE) VH: QVTLKESGPVLVKPTETLTLTCTVSGFSLNNARVGVSWIRQPPGKALEWLAHIFSNDEKSYSTSLKSRLTISKDTSKSQVVLTMTNMDPVDTATYYCARSVVTGGYYYEGMDVWGQGTTVTVSS VL: SYVLTQPPSVSVAPGQTARITCGGSNIGSESVHWYQQKPGQAPVLVVYEESDRPSGIPERFSGSNSGNTATLTISRVEAGDEADYYCQVWHGSSDHVVFGGGTKLTVLG"
